Test results published in patent US20160046944, “APTAMER TO IL-17 AND USE THEREOF” (THE UNIVERSITY OF TOKYO, published 2016).
Residue numbers refer to the chain shown, from its start.

How the values were obtained:
Settings in all cases: chain copies: 2
IL-17 (IL-17A) = molecular target: T1, IL-17 (IL-17A) (Homo sapiens, UniProt Q16552 Q16552:24-155); assay: cell_activity; IL-6 release, NIH3T3
T1 sequence: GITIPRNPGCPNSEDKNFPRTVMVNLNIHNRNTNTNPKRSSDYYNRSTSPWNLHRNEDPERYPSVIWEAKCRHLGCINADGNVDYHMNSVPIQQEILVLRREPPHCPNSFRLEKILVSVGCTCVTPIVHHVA
Procedure: (§1) First, human IL-17 and the aptamer produced in Example 1-1 were pre-incubated at 37° C. for 30 min, and added to NIH3T3 cell (ATCC, CRL1658) together with mouse TNFα (2 ng/mL). Then, after incubation for 24 hr, the culture supernatant was collected, and the amount of IL-6 was measured by BD Cytometric Bead Array (BD Biosciences). The IL-17 inhibitory action of each aptamer was determined from the amount of IL-6. For comparison with the aptamer of the present invention, a conventionally-known aptamer (aptamer No. 50) against IL-17 was used.

IL-17 [1] = molecular target: T2, IL-17 (Homo sapiens, UniProt Q16552 Q16552:24-155); assay: SPR; IL-17R-Fc on chip
T2 sequence: T1 sequence
Procedure: Whether aptamers shown by aptamer Nos. 1-49 inhibit the binding of IL-17 and IL-17 receptor was evaluated by the surface plasmon resonance method.
For the measurement, BIAcore2000 manufactured by BIAcore was used. […] As an analyte, IL-17 (100 or 150 nM) and an aptamer (50 or 100 nM) shown by aptamer No. 1-49 were mixed, maintained for 15 min and after that the mixture was flown.

IL-17 [2] = molecular target: T2, IL-17; assay: cell_activity; NIH3T3 IL-6 release
Procedure: as §1

IL-17 [3] = molecular target: T2, IL-17; assay: SPR; IL-17 150 nM, aptamer 12.5 or 50 nM
Procedure: Whether the synthesized aptamers inhibit the binding of IL-17 and IL-17 receptor was evaluated by the surface plasmon resonance method.
For the measurement, BIAcore T100 manufactured by GE Healthcare Bio Sciences was used. […] As an analyte, IL-17 (150 nM) and each aptamer (12.5 or 50 nM) shown by Table 3 were mixed, maintained for 15 min and after that the mixture was flown.

IL-17 [4] = molecular target: T2, IL-17; assay: cell_activity; NIH3T3 IL-6 release; remark: listed apart in the source
Procedure: (§2) First, human IL-17 and the aptamer produced in Example 1-2 were pre-incubated at 37° C. for 30 min, and added to NIH3T3 cell (ATCC, CRL1658) together with mouse TNFα (2 ng/mL). Then, after incubation for 24 hr, the culture supernatant was collected, and the production amount of IL-6 was measured by ELISA method described below. The IL-17 inhibitory action of each aptamer was determined from the production amount of IL-6. For comparison with the aptamer of the present invention, a conventionally-known aptamer (aptamer No. 50) against IL-17 was used.
ELISA method for verifying IL-17 inhibitory action of aptamer: A microtiter plate for ELISA was coated with rat anti-mouse IL-6 antibody (BD Biosciences, 2 μg/mL; 100 μL/well) diluted with PBS, and incubated at 4° C. overnight. The next day, the microtiter plate was washed 3 times with PBS/0.05% Tween 20, and applied blocking with PBS/1% BSA (200 μL/well) at room temperature for 2 hr. Then, the plate was washed 3 times with PBS/0.05% Tween 20. Recombinant mouse IL-6 (BD Biosciences; 100 μL/well) serially diluted with PBS/1% BSA/0.05% Tween 20 or culture supernatants (100 μL/well) were added to the plate. After incubation at room temperature for 2 hr, the plate was washed 3 times with PBS/0.05% Tween 20. Then, 100 μL/well of biotin conjugated rat anti-mouse IL-6 antibody (BD Biosciences) was added to the plate at final dilution of 1/500, and the mixture was reacted at room temperature for 1 hr. After washing 3 times with PBS/0.05% Tween 20, 100 μL/well of alkaline phosphatase conjugated streptavidin was added at final dilution of 1/1000. After 30 min at room temperature, the plate was again washed 4 times with PBS/0.05% Tween 20, and a substrate (1-Step PNPP; Thermo Fisher Scientific Inc; 100 μL/well) was added. After 15 min, aqueous sodium hydroxide solution (2N: 50 μL/well) was added to stop the reaction, and the plate was read on a microtiter reader (Bio-Rad) by using a 405 nm filter.

IL-17 [5] = molecular target: T2, IL-17; assay: cell_activity; NIH3T3 IL-6 release, human IL-17 + mouse TNFa, 37 C; 8.63 nM in Table 6
Procedure: as §2
ELISA method for verifying IL-17 inhibitory action of aptamer: A microtiter plate for ELISA was coated with rat anti-mouse IL-6 antibody (BD Biosciences, 2 μg/mL; 100 μL/well) diluted with PBS, and incubated at 4° C. overnight. The next day, the microtiter plate was washed 3 times with PBS/0.05% Tween 20, and applied blocking with PBS/1% BSA (200 μL/well) at room temperature for 2 hr. Then, the plate was washed 3 times with PBS/0.05% Tween 20. Recombinant mouse IL-6 (BD Biosciences; 100 μL/well) serially diluted with PBS/1% BSA/0.05% Tween 20 or culture supernatants (100 μL/well) were added to the plate. […] After 15 min, aqueous sodium hydroxide solution (2N: 50 μL/well) was added to stop the reaction, and the plate was read on a microtiter reader (Bio-Rad) by using a 405 nm filter.

B1: aptamer No. 35 (mixed)
mixed: GGGUAGCCGGAGGAGTCAGTAAUCGGTACCC
modifications: g(M)g(M)g(M)u(M)Agc(M)c(M)Gg(M)Agg(M)a(M)gTc(F)AgTa(M)Au(M)c(M)g(M)g(M)Ta(M)c(M)c(M)c(M)
B1 showed an IC50 (IL-17 (IL-17A)) of 2.47 nM.

B2: aptamer No. 20 (mixed)
mixed: B1 mixed with T27U
modifications: 2'-OMe (M), 2'-F (F), PS (S) as marked; uppercase DNA [2'-OMe: 1-4,7,8,10,13,14,21,23-26,28; 2'-F: 17,18,27; PS: 6]
B2 was tested, and the binding signal (IL-17 [1]) was 18.5 % IL-17/IL-17R binding remaining and the IC50 (IL-17 [2]) was 0.37 nM.

B3: aptamer No. 55 (mixed)
mixed: B1 mixed with A21G, T27U
modifications: 2'-OMe (M), 2'-F (F), PS (S) as marked; uppercase DNA [2'-OMe: 1,2,3,4,7,8,10,13,14,23,24,25,26,28; 2'-F: 11,17,18,27; PS: 6]
In the case of B3, the binding signal (IL-17 [3]) is reported as 19 % IL-17/IL-17R binding remaining and the IC50 (IL-17 [4]) is reported as 0.11 nM.

B4: aptamer No. 71 (mixed)
RNA: B1 mixed with T16U, T20U, T27U
modifications: 2'-OMe (M), 2'-F (F), PS (S) as marked; uppercase DNA [2'-OMe: 1-5,7,8,10,13,14,17,21-26,28-31; 2'-F: 11,16,18,20,27; PS: 6,15,19]
For B4, the IC50 (IL-17 [4]) was 5.54 nM.

B5: aptamer No. 4 (mixed)
RNA: B1 mixed with T16U, T20U, T27U
modifications: 2'-OMe (M), 2'-F (F), PS (S) as marked; uppercase DNA [1,2,3,4,6,7,8,10,11,13,14,16,17,18,20,21,22,23,24,25,26,27,28]
In the case of B5, the binding signal (IL-17 [1]) is reported as 26.8 % IL-17/IL-17R binding remaining and the IC50 (IL-17 [2]) is reported as 2.78 nM.

B6: aptamer No. 49 (mixed)
mixed: B1 mixed with T27U
modifications: g(M)g(M)g(M)u(M)Agc(M)c(M)Gg(M)Agg(M)a(M)gTc(F)agTaau(M)c(M)g(M)g(M)u(F)a(M)CCC (one (M) misprinted as (PI))
For B6, the IC50 (IL-17 (IL-17A)) was 0.65 nM.

B7: aptamer No. 74 (mixed)
mixed: B1 mixed with T27U
modifications: 2'-OMe (M), 2'-F (F) as marked; uppercase DNA [2'-OMe: 1-5,7,8,10,13,14,21-26,28-31; 2'-F: 11,17,18,27]
B7 gave an IC50 (IL-17 [4]) of 1.06 nM.

B8: aptamer No. 42 (mixed)
mixed: B1 mixed
modifications: g(M)g(M)g(M)u(M)Agc(M)c(M)Gg(M)agg(M)a(M)gTc(F)agTaAu(M)c(M)g(M)g(M)Ta(M)c(M)c(M)c(M)
B8 gave an IC50 (IL-17 (IL-17A)) of 0.51 nM.

B9: aptamer No. 30 (mixed)
mixed: B1 mixed
modifications: g(M)g(M)g(M)u(M)Agc(M)c(M)Gg(M)Agg(M)a(M)gTc(F)agTa(M)Au(M)c(M)g(M)g(M)Ta(M)c(M)c(M)c(M)
B9 gave an IC50 (IL-17 (IL-17A)) of 1.49 nM.

B10: aptamer No. 88 (mixed)
RNA: GGGUAGCCGGAGGAGUCAGUGAUCGGUACCC
modifications: 2'-OMe (M), 2'-F (F), PS (S) as marked; uppercase DNA [2'-OMe: 1-5,7,8,10,11,13,14,17,22-26,28-31; 2'-F: 16,18,20,27; PS: 6,15,19; DNA: 9]
For B10, the IC50 (IL-17 [4]) was 2.88 nM.

B11: aptamer No. 40 (mixed)
mixed: B1 mixed
modifications: g(M)g(M)g(M)u(M)Agc(M)c(M)Gg(M)Agg(M)a(M)gTc(F)AgTa(M)au(M)c(M)g(M)g(M)Ta(M)c(M)c(M)c(M)
In the case of B11, the IC50 (IL-17 (IL-17A)) is reported as 3.75 nM.

B12: aptamer No. 46 (mixed)
mixed: B1 mixed with T27U
modifications: g(M)g(M)g(M)u(M)Ag(S)c(M)c(M)Gg(M)Agg(M)a(M)gTc(F)agTaau(M)c(M)g(M)g(M)u(F)a(M)CCC
B12 showed an IC50 (IL-17 (IL-17A)) of 1.13 nM.

B13: aptamer No. 27 (mixed)
mixed: B1 mixed
modifications: g(M)g(M)g(M)u(M)Ag(S)c(M)c(M)Gg(M)Agg(M)a(M)gTc(F)agTa(M)Au(M)c(M)g(M)g(M)Ta(M)c(M)c(M)c(M)
B13 was tested, and the IC50 (IL-17 (IL-17A)) was 2.45 nM.

For GGGUAGCCGGAGGAGTCAGTAAUCGGUACCC (mixed, g(M)g(M)g(M)u(M)Agc(M)c(M)Gg(M)agg(M)a(M)gTc(F)agTaau(M)c(M)g(M)g(M)u(F)a(M)CCC) [aptamer No. 48], the IC50 (IL-17 (IL-17A)) was 0.3 nM.

B14: aptamer No. 38 (mixed)
mixed: B1 mixed
modifications: g(M)g(M)g(M)u(M)Agc(M)c(M)Gg(M)Agg(M)a(M)gTc(F)agTa(M)au(M)c(M)g(M)g(M)Ta(M)c(M)c(M)c(M)
B14 showed an IC50 (IL-17 (IL-17A)) of 0.31 nM.

B15: aptamer No. 39 (mixed)
mixed: B1 mixed
modifications: g(M)g(M)g(M)u(M)Agc(M)c(M)Gg(M)Agg(M)a(M)gTc(F)AgTaa(M)u(M)c(M)g(M)g(M)Ta(M)c(M)c(M)c(M)
B15 gave an IC50 (IL-17 (IL-17A)) of 3.91 nM.

B16: aptamer No. 25 (mixed)
mixed: B1 mixed
modifications: 2'-OMe (M), 2'-F (F) as marked; uppercase DNA [2'-OMe: 1-4,7,8,10,13,14,21,23-26,29-31; 2'-F: 17]
In the case of B16, the binding signal (IL-17 [1]) is reported as 11.7 % IL-17/IL-17R binding remaining and the IC50 (IL-17 [2]) is reported as 1.64 nM.

B17: aptamer No. 50 (ssRNA)
RNA: GGUCUAGCCGGAGGAGUCAGUAAUCGGUAGACC
modifications: 2'-F all U and C except none: ggu(F)c(F)u(F)agc(F)c(F)ggaggagu(F)c(F)agu(F)aau(F)c(F)ggu(F)agac(F)c(F)
Work on B17 yielded an IC50 (IL-17 [5]) of 7.36 nM.

B18: aptamer No. 17 (mixed)
mixed: GGGGUAGCCGGAGGAGTCAGTAAUCGGUACCCC
modifications: 2'-OMe (M), 2'-F (F), PS (S) as marked; uppercase DNA [2'-OMe: 1-5,8,9,11,14,15,22,24-27,29; 2'-F: 12,18,19,28; PS: 7]
For B18, the binding signal (IL-17 [1]) was 4.21 % IL-17/IL-17R binding remaining and the IC50 (IL-17 [2]) was 0.3 nM.

B19: aptamer No. 18 (mixed)
mixed: B18 mixed
modifications: 2'-OMe (M), 2'-F (F), PS (S) as marked; uppercase DNA; (NI) printed, likely (M) [2'-OMe: 1-5,8,9,11,14,15,24-27,29 (26 printed NI, likely M); 2'-F: 12,18,19,28; PS: 7]
In the case of B19, the binding signal (IL-17 [1]) is reported as 13.6 % IL-17/IL-17R binding remaining and the IC50 (IL-17 [2]) is reported as 0.15 nM.

B20: aptamer No. 5 (mixed)
mixed: B18 mixed
modifications: 2'-OMe (M), 2'-F (F), PS (S) as marked; uppercase DNA; SEQ ID NO:2 [1,2,3,4,5,6,7,8,9,11,12,14,15,18,19,22,23,24,25,26,27,28]
For B20, the binding signal (IL-17 [1]) was 32.3 % IL-17/IL-17R binding remaining and the IC50 (IL-17 [2]) was 0.13 nM.
